Experimental data published in patent US20230391876A1 (HANALL BIOPHARMA, published 2023).

Experiments:
[1] = target: T1, shFcRn (soluble human FcRn) (human, UniProt P55899 24-297; P61769 21-119); assay: SPR, hFcRn immobilized on chip, pH 7.4
T1 construct: extracellular domain; Printed only as 'soluble human FcRn'; also called hFcRn (immobilized on a chip)
Method: (§1) Kinetic analysis was performed using a 1:1 Langmuir binding model, and the average KD value was obtained by repeating the analysis 6 times in each condition of pH 6.0 and pH 7.4.
(§2) Chip activation was performed under EDAC/NHS 0.5×, 30 μL/min, and 300 sec conditions. Thereafter, shFcRn was prepared at 2 μg/mL, 250 μL using an acetate buffer (pH 5.5), and immobilization was performed while flowing at 30 μL/min. The reaction was stopped when the immobilization level corresponded to 200 RU to 300 RU. Thereafter, deactivation was performed using ethanolamine at 30 μL/min, 300 sec. […] Sample dilution was performed using 1×PBST (pH 7.4) or 1×PBST (pH 6.0) buffer depending on the analysis pH. In the sample analysis conditions, association was carried out by reaction at 50 μL/min, 200 sec, and dissociation was carried out by reaction at 50 μL/min, 600 sec. Thereafter, reaction was carried out using a glycine buffer (pH 2.0) at 100 μL/min, 18 sec to perform regeneration. For kinetic analysis, samples were prepared and reacted once in three cells to which shFcRn was immobilized. Then three kinetic values were obtained, and then an average KD value was measured. When analyzing reaction signals, interspot-referencing and signals in which only buffer was analyzed were used for a double-referencing.

[2] = target: T1, shFcRn (soluble human FcRn); assay: SPR, shFcRn immobilized on chip, antibody as analyte, pH 7.4;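 also: kinetics fitted with a 1:1 Langmuir model, association 200 s and dissociation 600 s in PBST, double-referenced against buffer-only and interspot signals, values averaged over repeated runs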
Method: as §1, §2

[3] = target: T1, shFcRn (soluble human FcRn); assay: SPR, shFcRn immobilized on chip, antibody as analyte, pH 6.0;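 also: kinetics fitted with a 1:1 Langmuir model, association 200 s and dissociation 600 s, samples diluted in PBST, double-referenced signals, values averaged across three shFcRn-coated cells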
Method: as §1, §2

[4] = target: T2, hFcRn on hFcRn-expressing HEK293 cells (human, UniProt P55899 24-365; P61769 21-119); assay: FACS on hFcRn HEK293 cells, 10 nM antibody, pH 6.0
T2 construct: whole, on cells; also called hFcRn HEK293
Method: (§3) The analysis of hFcRn binding using FACS was carried out under two conditions of pH 6.0 and pH 7.4. hFcRn-expressing 1TEK293 (hFcRn HEK293) cells were diluted with the reaction buffer (0.0500 BSA in PBS, pH 6.0 or pH 7.4) and prepared in duplicate in a 96 well plate at 1×10⁵ cells for each sample. In addition, each antibody sample was diluted with the reaction buffer to 10 nM, and then put into a 96 well plate, and incubated at 4° C. for 90 minutes. Thereafter, the plate was centrifuged to remove the supernatant, and then Alexa488-goat anti-hIgG Ab (1:200) was added thereto, and again incubated at 4° C. for 90 minutes. After the reaction was completed, it was centrifuged to remove the supernatant, and 200 μL of the reaction buffer was added to resuspend the cell pellet, and then the MFI value was measured in a FACS instrument.

[5] = target: T2, hFcRn on hFcRn-expressing HEK293 cells; assay: FACS on hFcRn HEK293 cells, pH 6.0; head prints 'FACS binding (EC50, nM)', taken as blocking of competitor Alexa488-hIgG1 (Example 4.5)
Method: 1×10⁷ hFcRn HEK293 cells were seeded into a T75 flask and cultured for 24 hours. After culturing, the cells were removed and placed in a 96 well plate at 1×10⁵ cells for each sample in duplicate. […] After the reaction was completed, it was centrifuged to remove the supernatant. 200 μL of the reaction buffer was added to resuspend the cell pellet, and then the MFI value was measured in a FACS instrument.

[6] = target: T2, hFcRn on hFcRn-expressing HEK293 cells; assay: FACS on hFcRn HEK293 cells, 10 nM antibody, pH 7.4
Method: as §3

[7] = target: T1, shFcRn (soluble human FcRn); assay: SPR, hFcRn immobilized on chip, pH 6.0
Method: as §1, §2

T2 sequence (P55899 24-365 limits assumed, chain 1 of 2): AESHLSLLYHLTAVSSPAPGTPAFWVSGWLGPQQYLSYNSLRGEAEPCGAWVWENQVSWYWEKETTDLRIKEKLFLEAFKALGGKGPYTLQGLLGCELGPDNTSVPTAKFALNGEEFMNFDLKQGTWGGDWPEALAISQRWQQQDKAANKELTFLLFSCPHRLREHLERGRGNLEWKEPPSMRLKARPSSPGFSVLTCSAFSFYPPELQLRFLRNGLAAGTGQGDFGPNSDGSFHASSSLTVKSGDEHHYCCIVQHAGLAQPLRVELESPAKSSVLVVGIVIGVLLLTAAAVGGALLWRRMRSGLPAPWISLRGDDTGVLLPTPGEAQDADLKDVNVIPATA
T2 sequence (P61769 21-119 limits assumed, chain 2 of 2): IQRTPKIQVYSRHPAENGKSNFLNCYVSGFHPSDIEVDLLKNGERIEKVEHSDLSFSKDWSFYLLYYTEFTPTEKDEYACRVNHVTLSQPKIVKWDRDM
T1 sequence (P55899 24-297 limits assumed, chain 1 of 2): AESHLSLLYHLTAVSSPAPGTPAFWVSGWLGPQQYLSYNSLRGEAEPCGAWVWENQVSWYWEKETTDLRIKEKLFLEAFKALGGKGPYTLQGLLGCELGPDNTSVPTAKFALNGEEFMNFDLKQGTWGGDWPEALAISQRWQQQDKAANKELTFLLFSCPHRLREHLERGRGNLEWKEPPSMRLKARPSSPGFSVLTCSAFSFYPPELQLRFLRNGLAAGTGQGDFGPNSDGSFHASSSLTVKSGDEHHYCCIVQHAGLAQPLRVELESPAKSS
T1 sequence (P61769 21-119 limits assumed, chain 2 of 2): as the sequence (P61769 21-119 limits assumed, chain 2 of 2) above

Binder | Kd [1] | Kd [2] | Kd [3] | MFI [4] | EC50 [5] | MFI [6] | koff [2] | kon [2] | koff [3] | kon [3] | Kd [7]
HL161AN variant No. 3 (LC:N25S, HC:Q82S) (antibody, human IgG1, V domains shown, Variable domains only) VL: SYVLTQPPSVSVAPGQTARITCGGSNIGSTSVHWYQQKPGQAPVLVVHDDSDRPSGIPERFSGSNSGNTATLTISRVEAGDEADYYCQVRDSSSDHVIFGGGTKLTVLGQPKAAPSVTL VH: EVQLLESGGGLVQPGGSLRLSCAASEFTFGSCVMTWVRQAPGKGLEWVSVISGSGGSTYYADSVKGRFTISRDNSKNTLYLSMNSLRAEDTAVYYCAKTPWWLRSPFFDYWGQGTLVTVSS | 0.21 nM | 0.199 nM | 0.145 nM | 2440 MFI | 1.4 nM | 6240 MFI | – | – | – | – | –
HL161AN variant No. 4 (LC:N25S, HC:Q82T) (antibody, human IgG1, V domains shown, Variable domains only) VL: SYVLTQPPSVSVAPGQTARITCGGSNIGSTSVHWYQQKPGQAPVLVVHDDSDRPSGIPERFSGSNSGNTATLTISRVEAGDEADYYCQVRDSSSDHVIFGGGTKLTVLGQPKAAPSVTL VH: EVQLLESGGGLVQPGGSLRLSCAASEFTFGSCVMTWVRQAPGKGLEWVSVISGSGGSTYYADSVKGRFTISRDNSKNTLYLTMNSLRAEDTAVYYCAKTPWWLRSPFFDYWGQGTLVTVSS | 0.27 nM | 0.24 nM | 0.156 nM | 2690 MFI | 1.47 nM | 6300 MFI | – | – | – | – | –
HL161AN variant No. 5 (LC:N25S, HC:Q82E) (antibody, human IgG1, V domains shown, Variable domains only) VL: SYVLTQPPSVSVAPGQTARITCGGSNIGSTSVHWYQQKPGQAPVLVVHDDSDRPSGIPERFSGSNSGNTATLTISRVEAGDEADYYCQVRDSSSDHVIFGGGTKLTVLGQPKAAPSVTL VH: EVQLLESGGGLVQPGGSLRLSCAASEFTFGSCVMTWVRQAPGKGLEWVSVISGSGGSTYYADSVKGRFTISRDNSKNTLYLEMNSLRAEDTAVYYCAKTPWWLRSPFFDYWGQGTLVTVSS | 0.67 nM | 0.637 nM | 0.229 nM | 2570 MFI | 1.46 nM | 6350 MFI | 0.000743 s⁻¹ | 1.17e+06 M⁻¹ s⁻¹ | 0.000563 s⁻¹ | 2.46e+06 M⁻¹ s⁻¹ | 0.16 nM
HL161AN variant No. 6 (LC:N25S, HC:C32S Q82S) (antibody, human IgG1, V domains shown, Variable domains only) VL: SYVLTQPPSVSVAPGQTARITCGGSNIGSTSVHWYQQKPGQAPVLVVHDDSDRPSGIPERFSGSNSGNTATLTISRVEAGDEADYYCQVRDSSSDHVIFGGGTKLTVLGQPKAAPSVTL VH: EVQLLESGGGLVQPGGSLRLSCAASEFTFGSSVMTWVRQAPGKGLEWVSVISGSGGSTYYADSVKGRFTISRDNSKNTLYLSMNSLRAEDTAVYYCAKTPWWLRSPFFDYWGQGTLVTVSS | – | – | 0.163 nM | 2650 MFI | 1.31 nM | 6920 MFI | – | – | – | – | 0.13 nM
HL161AN variant No. 7 (LC:N25S, HC:C32S Q82T) (antibody, human IgG1, V domains shown, Variable domains only) VL: SYVLTQPPSVSVAPGQTARITCGGSNIGSTSVHWYQQKPGQAPVLVVHDDSDRPSGIPERFSGSNSGNTATLTISRVEAGDEADYYCQVRDSSSDHVIFGGGTKLTVLGQPKAAPSVTL VH: EVQLLESGGGLVQPGGSLRLSCAASEFTFGSSVMTWVRQAPGKGLEWVSVISGSGGSTYYADSVKGRFTISRDNSKNTLYLTMNSLRAEDTAVYYCAKTPWWLRSPFFDYWGQGTLVTVSS | 0.21 nM | 0.187 nM | 0.152 nM | 2550 MFI | 1.28 nM | 6620 MFI | – | – | – | – | –
HL161AN variant No. 9 (LC:N25S, HC:C32Y Q82S) (antibody, human IgG1, V domains shown, Variable domains only) VL: SYVLTQPPSVSVAPGQTARITCGGSNIGSTSVHWYQQKPGQAPVLVVHDDSDRPSGIPERFSGSNSGNTATLTISRVEAGDEADYYCQVRDSSSDHVIFGGGTKLTVLGQPKAAPSVTL VH: EVQLLESGGGLVQPGGSLRLSCAASEFTFGSYVMTWVRQAPGKGLEWVSVISGSGGSTYYADSVKGRFTISRDNSKNTLYLSMNSLRAEDTAVYYCAKTPWWLRSPFFDYWGQGTLVTVSS | – | 0.245 nM | 0.177 nM | 2660 MFI | 1.43 nM | 6750 MFI | – | – | – | – | 0.16 nM
HL161AN variant No. 10 (LC:N25S, HC:C32Y Q82T) (antibody, human IgG1, V domains shown, Variable domains only) VL: SYVLTQPPSVSVAPGQTARITCGGSNIGSTSVHWYQQKPGQAPVLVVHDDSDRPSGIPERFSGSNSGNTATLTISRVEAGDEADYYCQVRDSSSDHVIFGGGTKLTVLGQPKAAPSVTL VH: EVQLLESGGGLVQPGGSLRLSCAASEFTFGSYVMTWVRQAPGKGLEWVSVISGSGGSTYYADSVKGRFTISRDNSKNTLYLTMNSLRAEDTAVYYCAKTPWWLRSPFFDYWGQGTLVTVSS | 0.36 nM | 0.256 nM | 0.205 nM | 2580 MFI | 1.37 nM | 6660 MFI | 0.000494 s⁻¹ | 1.93e+06 M⁻¹ s⁻¹ | 0.000573 s⁻¹ | 2.8e+06 M⁻¹ s⁻¹ | 0.15 nM
HL161AN variant No. 14 (LC:N25Q, HC:Q82S) (antibody, human IgG1, V domains shown, Variable domains only) VL: SYVLTQPPSVSVAPGQTARITCGGQNIGSTSVHWYQQKPGQAPVLVVHDDSDRPSGIPERFSGSNSGNTATLTISRVEAGDEADYYCQVRDSSSDHVIFGGGTKLTVLGQPKAAPSVTL VH: EVQLLESGGGLVQPGGSLRLSCAASEFTFGSCVMTWVRQAPGKGLEWVSVISGSGGSTYYADSVKGRFTISRDNSKNTLYLSMNSLRAEDTAVYYCAKTPWWLRSPFFDYWGQGTLVTVSS | 0.35 nM | 0.283 nM | 0.208 nM | 2590 MFI | 1.29 nM | 6490 MFI | 0.000551 s⁻¹ | 1.95e+06 M⁻¹ s⁻¹ | 0.000558 s⁻¹ | 2.68e+06 M⁻¹ s⁻¹ | 0.2 nM
HL161AN variant No. 15 (LC:N25Q, HC:Q82T) (antibody, human IgG1, V domains shown, Variable domains only) VL: SYVLTQPPSVSVAPGQTARITCGGQNIGSTSVHWYQQKPGQAPVLVVHDDSDRPSGIPERFSGSNSGNTATLTISRVEAGDEADYYCQVRDSSSDHVIFGGGTKLTVLGQPKAAPSVTL VH: EVQLLESGGGLVQPGGSLRLSCAASEFTFGSCVMTWVRQAPGKGLEWVSVISGSGGSTYYADSVKGRFTISRDNSKNTLYLTMNSLRAEDTAVYYCAKTPWWLRSPFFDYWGQGTLVTVSS | 0.36 nM | 0.279 nM | 0.265 nM | 2570 MFI | 1.1 nM | 6540 MFI | 0.000513 s⁻¹ | 1.84e+06 M⁻¹ s⁻¹ | 0.000601 s⁻¹ | 2.27e+06 M⁻¹ s⁻¹ | 0.33 nM
HL161AN variant No. 16 (LC:N25Q, HC:Q82E) (antibody, human IgG1, V domains shown, Variable domains only) VL: SYVLTQPPSVSVAPGQTARITCGGQNIGSTSVHWYQQKPGQAPVLVVHDDSDRPSGIPERFSGSNSGNTATLTISRVEAGDEADYYCQVRDSSSDHVIFGGGTKLTVLGQPKAAPSVTL VH: EVQLLESGGGLVQPGGSLRLSCAASEFTFGSCVMTWVRQAPGKGLEWVSVISGSGGSTYYADSVKGRFTISRDNSKNTLYLEMNSLRAEDTAVYYCAKTPWWLRSPFFDYWGQGTLVTVSS | 0.43 nM | 0.272 nM | 0.271 nM | 2540 MFI | 1.74 nM | 6210 MFI | 0.000504 s⁻¹ | 1.86e+06 M⁻¹ s⁻¹ | 0.000556 s⁻¹ | 2.05e+06 M⁻¹ s⁻¹ | 0.33 nM
HL161AN variant No. 17 (LC:N25Q, HC:C32S Q82S) (antibody, human IgG1, V domains shown, Variable domains only) VL: SYVLTQPPSVSVAPGQTARITCGGQNIGSTSVHWYQQKPGQAPVLVVHDDSDRPSGIPERFSGSNSGNTATLTISRVEAGDEADYYCQVRDSSSDHVIFGGGTKLTVLGQPKAAPSVTL VH: EVQLLESGGGLVQPGGSLRLSCAASEFTFGSSVMTWVRQAPGKGLEWVSVISGSGGSTYYADSVKGRFTISRDNSKNTLYLSMNSLRAEDTAVYYCAKTPWWLRSPFFDYWGQGTLVTVSS | 0.3 nM | 0.249 nM | 0.169 nM | 2640 MFI | 1.3 nM | 6750 MFI | 0.000566 s⁻¹ | 2.27e+06 M⁻¹ s⁻¹ | 0.000538 s⁻¹ | 3.19e+06 M⁻¹ s⁻¹ | 0.22 nM
HL161AN variant No. 18 (LC:N25Q, HC:C32S Q82T) (antibody, human IgG1, V domains shown, Variable domains only) VL: SYVLTQPPSVSVAPGQTARITCGGQNIGSTSVHWYQQKPGQAPVLVVHDDSDRPSGIPERFSGSNSGNTATLTISRVEAGDEADYYCQVRDSSSDHVIFGGGTKLTVLGQPKAAPSVTL VH: EVQLLESGGGLVQPGGSLRLSCAASEFTFGSSVMTWVRQAPGKGLEWVSVISGSGGSTYYADSVKGRFTISRDNSKNTLYLTMNSLRAEDTAVYYCAKTPWWLRSPFFDYWGQGTLVTVSS | 0.33 nM | 0.226 nM | 0.198 nM | 2520 MFI | 1.15 nM | 6910 MFI | 0.000542 s⁻¹ | 2.39e+06 M⁻¹ s⁻¹ | 0.000562 s⁻¹ | 2.84e+06 M⁻¹ s⁻¹ | 0.25 nM
HL161AN variant No. 20 (LC:N25Q, HC:C32Y Q82S) (antibody, human IgG1, V domains shown, Variable domains only) VL: SYVLTQPPSVSVAPGQTARITCGGQNIGSTSVHWYQQKPGQAPVLVVHDDSDRPSGIPERFSGSNSGNTATLTISRVEAGDEADYYCQVRDSSSDHVIFGGGTKLTVLGQPKAAPSVTL VH: EVQLLESGGGLVQPGGSLRLSCAASEFTFGSYVMTWVRQAPGKGLEWVSVISGSGGSTYYADSVKGRFTISRDNSKNTLYLSMNSLRAEDTAVYYCAKTPWWLRSPFFDYWGQGTLVTVSS | 0.35 nM | 0.283 nM | 0.2 nM | 2520 MFI | 1.16 nM | 5840 MFI | 0.00056 s⁻¹ | 1.98e+06 M⁻¹ s⁻¹ | 0.000509 s⁻¹ | 2.54e+06 M⁻¹ s⁻¹ | 0.17 nM
